Laboratory results taken from the supplement of paper PMC10567573.

B1: C22orf31 (parent)
chain: YSLELGKAIKQKLWEALCSQGAIS
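Also: lentivirally expressed fusions sorted by FACS into six bins by GFP to DsRed ratio, PSI derived from sequencing read proportions per bin multiplied by bin number.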

Variants of: B1
Assay: protein stability index of a GFP-peptide fusion (GPS, HEK-293T) (PSI 1-6); higher = more stable
Settings: c terminus: a fixed tail appended
In the case of YSEELGKAIKQKLWEALCSQGAIS, the protein stability index is reported as 2.53.
For YSHELGKAIKQKLWEALCSQGAIS, the protein stability index was 1.66.
For YSGELGKAIKQKLWEALCSQGAIS, the protein stability index was 1.43.
YSFELGKAIKQKLWEALCSQGAIS showed a protein stability index of 2.43.
YSKELGKAIKQKLWEALCSQGAIS gave a protein stability index of 2.03.
Variant YSIELGKAIKQKLWEALCSQGAIS has a protein stability index of 1.79.
YSVELGKAIKQKLWEALCSQGAIS showed a protein stability index of 3.15.
Work on YSNELGKAIKQKLWEALCSQGAIS yielded a protein stability index of 2.19.
Work on YSTELGKAIKQKLWEALCSQGAIS yielded a protein stability index of 1.89.
YSLELGKAIKQKLWENLCSQGAIS gave a protein stability index of 1.29.
Work on YSLELGKAIKQKLWEYLCSQGAIS yielded a protein stability index of 1.89.
YSLELGKAIKQKLWEWLCSQGAIS showed a protein stability index of 2.4.
Variant YSLELGKAIKQKLWETLCSQGAIS has a protein stability index of 3.32.
YSLELGKAIKQKLWEDLCSQGAIS showed a protein stability index of 1.98.
For YSLELGKAIKQKLWEMLCSQGAIS, the protein stability index was 2.69.
In the case of YSLELGKAIKQKLWEGLCSQGAIS, the protein stability index is reported as 2.26.
In the case of YSLELGKAIKQKLWEHLCSQGAIS, the protein stability index is reported as 1.83.
YSLELGKAIKQKLWELLCSQGAIS showed a protein stability index of 1.77.
Work on YSLELGKAIKQKLWESLCSQGAIS yielded a protein stability index of 2.54.
Work on YSLELGKAIKQKLWEALCSEGAIS yielded a protein stability index of 2.79.
Variant YSLELGKAIKQKLWEALCSFGAIS has a protein stability index of 1.95.
In the case of YSLELGKAIKQKLWEALCSVGAIS, the protein stability index is reported as 2.58.
Variant YSLELGKAIKQKLWEALCSIGAIS has a protein stability index of 2.97.
YSLELGKAIKQKLWEALCSNGAIS gave a protein stability index of 1.62.
Work on YSLELGKAIKQKLWEALCSRGAIS yielded a protein stability index of 2.99.
YSLELGKAIKQKLWEALFSQGAIS showed a protein stability index of 1.64.
YSLELGKAIKQKLWEALESQGAIS gave a protein stability index of 2.17.
YSLELGKAIKQKLWEALPSQGAIS showed a protein stability index of 2.26.
Variant YSLELGKAIKQKLWEALVSQGAIS has a protein stability index of 2.29.
YSLELGKAIKQKLWEALNSQGAIS showed a protein stability index of 3.44.
Variant YSLELGKAIKQKLWEALYSQGAIS has a protein stability index of 2.52.
YSLELGKAIKQKLWEALGSQGAIS showed a protein stability index of 1.53.
With YSLELGKAIKQKLWEALDSQGAIS the protein stability index was 2.09.
YSLELGKAIKQKLWEALISQGAIS gave a protein stability index of 3.32.
With YSLELGKAIKQKLWEALSSQGAIS the protein stability index was 1.91.
In the case of YSLELGKAIKQKLWEALHSQGAIS, the protein stability index is reported as 1.66.
In the case of YSLELGKAIKQKLWEALCSQGADS, the protein stability index is reported as 1.62.
Variant YSLELGKAIKQKLWEALCSQGAPS has a protein stability index of 1.6.
YSLELGKAIKQKLWEALCSQGAHS showed a protein stability index of 1.63.
Variant YSLELGKAIKQKLWEALCSQGAAS has a protein stability index of 1.75.
In the case of YSLELGKAIKQKLWEALCSQGAES, the protein stability index is reported as 2.37.
With YSLELGKAIKQKLWEAACSQGAIS the protein stability index was 1.25.
For YSLELGKAIKQKLWEAICSQGAIS, the protein stability index was 2.85.
For YSLELGKAIKQKLWEASCSQGAIS, the protein stability index was 2.41.
YSLELGKAIKQKLWEAQCSQGAIS gave a protein stability index of 1.87.
YSLELGKAIKQKLWEAWCSQGAIS showed a protein stability index of 1.19.
Work on YSLELGKAIKQKLWEAECSQGAIS yielded a protein stability index of 1.69.
YSLELGKAIKQKLWEAGCSQGAIS gave a protein stability index of 2.05.
Work on YSLELGKAIKQKLWEADCSQGAIS yielded a protein stability index of 2.62.
YSLELGKAIKQKLWEATCSQGAIS gave a protein stability index of 2.26.
With YSLELGKAIKQKLWEAYCSQGAIS the protein stability index was 2.06.
Work on YSLELGKAIKQKLWEAKCSQGAIS yielded a protein stability index of 2.11.
YSLELGKAIKQKLWEAFCSQGAIS showed a protein stability index of 2.17.
In the case of YSLELGKAIKQKLWEAVCSQGAIS, the protein stability index is reported as 3.22.
In the case of YSLEDGKAIKQKLWEALCSQGAIS, the protein stability index is reported as 2.11.
YSLEFGKAIKQKLWEALCSQGAIS showed a protein stability index of 4.05.
For YSLETGKAIKQKLWEALCSQGAIS, the protein stability index was 1.75.
Variant YSLEGGKAIKQKLWEALCSQGAIS has a protein stability index of 1.82.
Work on YSLEMGKAIKQKLWEALCSQGAIS yielded a protein stability index of 2.14.
YSLEIGKAIKQKLWEALCSQGAIS showed a protein stability index of 3.07.
YSLEHGKAIKQKLWEALCSQGAIS showed a protein stability index of 2.19.
YSLESGKAIKQKLWEALCSQGAIS gave a protein stability index of 1.5.
Work on YSLEYGKAIKQKLWEALCSQGAIS yielded a protein stability index of 1.86.
In the case of YSLEEGKAIKQKLWEALCSQGAIS, the protein stability index is reported as 2.21.
Work on YSLEWGKAIKQKLWEALCSQGAIS yielded a protein stability index of 1.96.
Work on YSLENGKAIKQKLWEALCSQGAIS yielded a protein stability index of 1.59.
Variant YSLELGKAIKQKEWEALCSQGAIS has a protein stability index of 3.05.
With YSLELGKAIKQKKWEALCSQGAIS the protein stability index was 1.47.
In the case of YSLELGKAIKQKAWEALCSQGAIS, the protein stability index is reported as 1.41.
Variant YSLELGKAIKQKYWEALCSQGAIS has a protein stability index of 1.56.
Work on YSLELGKAIKQKSWEALCSQGAIS yielded a protein stability index of 2.24.
In the case of YSLELGKAIKQKHWEALCSQGAIS, the protein stability index is reported as 2.48.
Work on YSLELGKAIKQKGWEALCSQGAIS yielded a protein stability index of 1.88.
Work on YSLELGKAIKQKLTEALCSQGAIS yielded a protein stability index of 1.98.
For YSLELGKAIKQKLYEALCSQGAIS, the protein stability index was 1.78.
For YSLELGKAIKQKLDEALCSQGAIS, the protein stability index was 3.34.
YSLELGKAIKQKLVEALCSQGAIS gave a protein stability index of 3.18.
Variant YSLELGKAIKQKLHEALCSQGAIS has a protein stability index of 1.34.
Variant YSLELGKAIKQKLMEALCSQGAIS has a protein stability index of 2.24.
Work on YSLELGKAIKQKLAEALCSQGAIS yielded a protein stability index of 1.06.
YSLELGKAIKQKLPEALCSQGAIS gave a protein stability index of 3.34.
YSLELGKAIKQKLWEALCSQGKIS gave a protein stability index of 3.13.
With YSLELGKAIKQKLWEALCSQGSIS the protein stability index was 3.11.
For YSLELGKAIKQKLWEALCSQGDIS, the protein stability index was 1.59.
Work on ESLELGKAIKQKLWEALCSQGAIS yielded a protein stability index of 1.22.
With QSLELGKAIKQKLWEALCSQGAIS the protein stability index was 2.81.
FSLELGKAIKQKLWEALCSQGAIS showed a protein stability index of 2.8.
Variant ASLELGKAIKQKLWEALCSQGAIS has a protein stability index of 1.69.
For HSLELGKAIKQKLWEALCSQGAIS, the protein stability index was 2.79.
For RSLELGKAIKQKLWEALCSQGAIS, the protein stability index was 2.88.
KSLELGKAIKQKLWEALCSQGAIS showed a protein stability index of 3.44.
Work on DSLELGKAIKQKLWEALCSQGAIS yielded a protein stability index of 1.87.
In the case of TSLELGKAIKQKLWEALCSQGAIS, the protein stability index is reported as 3.1.
For LSLELGKAIKQKLWEALCSQGAIS, the protein stability index was 2.91.
